Test results from PMC5736309.

Target: Y1F Rpb1 (Rpb1 with a CTD of 26 FSPTSPS repeats) (S. cerevisiae)
Test: co-IP

B1: 3HA-tagged Nrd1 (natural protein)
chain: MQQDDDFQNFVATLESFKDLKSGISGSRIKKLTTYALDHIDIESKIISLIIDYSRLCPDSHKLGSLYIIDSIGRAYLDETRSNSNSSSNKPGTCAHAINTLGEVIQELLSDAIAKSNQDHKEKIRMLLDIWDRSGLFQKSYLNAIRSKCFAMDISNNTANTASQQLSLDPKQRSKQILSNLKKSPPLNLNISLPTDLTSTDPAKQQAALFQVIAALQKHFKTLPSHTSVGTVAPPQAHTITEYGSRRERERERERYNSRRNRSRSPPAPFSQPSTGRKDRYPSVAQDQYSIGAPNTTFGTNNHHLYPDELNVSNNPHYRPKPVSYDSTLPPDHIKVYSRTLFIGGVPLNMKEWDLANVLKPFAEVQSVILNNSRKHAFVKVYSRHEAENVLQNFNKDGALPLRTRWGVGFGPRDCCDYQHGYSIIPMHRLTDADKKWSVSAQWGGTSGQPLVTGIVFEEPDIIVGEGVSSKAISQKMPTDSGRNGPRSGKPNKSGSISSISPVPYGNAPLASPPPQQYVQPMMQQPYGYAPNQPLPSQGPAAAAPPVPQQQFDPTAQLNSLMNMLNQQQQQQQQS
Question: Which fold change in binding against WT Rpb1 does the source give for B1 here?
Answer: 7.3 fold
